{
  "source": "patent US6835382B2",
  "about": "“Ii peptide therapeutics to enhance antigen presentation” (University of Massachusetts, priority 1996, dated 2004)",
  "biological_target": "T1, murine E^d MHC class II allele (Mus musculus, UniProt P01904+P01915)",
  "T1 sequence (P01904 26-255)": "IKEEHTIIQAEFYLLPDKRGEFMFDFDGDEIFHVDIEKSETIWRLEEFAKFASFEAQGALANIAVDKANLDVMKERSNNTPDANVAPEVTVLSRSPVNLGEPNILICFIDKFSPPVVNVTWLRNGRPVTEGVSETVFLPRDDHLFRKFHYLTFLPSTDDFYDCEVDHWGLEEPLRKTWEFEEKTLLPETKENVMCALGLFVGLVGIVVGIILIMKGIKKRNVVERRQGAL",
  "T1 sequence (P01915 27-264 limits assumed)": "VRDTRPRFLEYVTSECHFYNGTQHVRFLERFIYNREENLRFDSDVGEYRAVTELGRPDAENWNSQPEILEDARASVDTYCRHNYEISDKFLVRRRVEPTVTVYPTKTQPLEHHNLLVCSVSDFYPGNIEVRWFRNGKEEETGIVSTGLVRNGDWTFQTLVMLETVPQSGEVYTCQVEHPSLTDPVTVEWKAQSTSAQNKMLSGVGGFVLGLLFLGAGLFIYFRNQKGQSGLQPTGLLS",
  "test": "simultaneous assay, E^d allele (A20 APC, G28.C9 T hybridoma, HEL106-116; HT-2 [3H]TdR readout)",
  "format": "cell-based",
  "design": "The A20 and CH27 B cell lymphoma lines express H-2^d and H-2^k alleles, respectively; endogenous in cells; host or cells: A20 B cell lymphoma (mitomycin C-treated or paraformaldehyde-fixed)",
  "how_it_was_run": "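Antigenic peptide, mitomycin C-treated APC, effector compound and allele-restricted T hybridoma cultured together for 24 h. Supernatant then transferred to interleukin-dependent HT-2 cells. T cell activation quantified as [3H]TdR uptake by HT-2 cells.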",
  "key": {"[1]": {"details": "Table 13, AE peptide 1 μM (fourth value), supernatant 1:4"}, "[2]": {"details": "Table 13, AE peptide 4 μM (third value), supernatant 1:4"}, "[3]": {"details": "Table 13, AE peptide 16 μM (second value), supernatant 1:4"}, "[4]": {"details": "Table 13, AE peptide 64 μM (first value), supernatant 1:4"}, "[5]": {"details": "Table 14, AE peptide 64 μM, supernatant 1:4"}, "[6]": {"details": "Table 15, AE peptide 16 μM, supernatant 1:4"}, "[7]": {"details": "Table 2, AE peptide 64 μM, 0.05 μM HEL106-116, supernatant 1:2"}, "[8]": {"details": "Table 11, AE peptide 64 μM, supernatant 1:8"}, "[9]": {"details": "Table 5, AE peptide 64 μM, supernatant 1:4"}, "[10]": {"details": "Table 16, AE peptide 4 μM, supernatant 1:8"}, "[11]": {"details": "Table 7, AE peptide 64 μM, supernatant 1:4"}},
  "note": "Non-standard residues stand in square brackets, D forms with d. Cit = NC(=O)NCCC[C@H](N)C(=O)O",
  "data": [
    {"substance": "Ac- (mL) RMKLPK-NH2 [AE174]", "values": [
      {"measurement": "Times Baseline Response, E^d", "setting": "[1]", "value": 1},
      {"measurement": "Times Baseline Response, E^d", "setting": "[2]", "value": 2},
      {"measurement": "Times Baseline Response, E^d", "setting": "[3]", "value": 40},
      {"measurement": "Times Baseline Response, E^d", "setting": "[4]", "value": 55},
      {"measurement": "Times Baseline Response, E^d", "setting": "[5]", "value": 15.9}
    ]},
    {"substance": "Ac-ARMKLPKSAK-NH2 [AE120]", "values": [
      {"measurement": "Times Baseline Response, E^d", "setting": "Table 10, AE peptide 16 μM (second value), supernatant 1:2", "value": 18.1},
      {"measurement": "Times Baseline Response, E^d", "setting": "Table 10, AE peptide 64 μM (first value), supernatant 1:2", "value": 35.4},
      {"measurement": "Times Baseline Response, E^d", "setting": "[6]", "value": 19.4}
    ]},
    {"substance": "Ac-ARMKNPK-NH2 [AE345]", "values": [
      {"measurement": "Times Baseline Response, E^d", "setting": "[6]", "value": 3.7}
    ]},
    {"substance": "Ac-ARNKLPK-NH2 [AE344]", "values": [
      {"measurement": "Times Baseline Response, E^d", "setting": "[6]", "value": 7.7}
    ]},
    {"substance": "Ac-ARNKNPF-NH2 [AE347]", "values": [
      {"measurement": "Times Baseline Response, E^d", "setting": "[6]", "value": 1.0}
    ]},
    {"substance": "Ac-ARNKNPK-NH2 [AE346]", "values": [
      {"measurement": "Times Baseline Response, E^d", "setting": "[6]", "value": 1.2}
    ]},
    {"substance": "Ac-DSLRMKLPKSAK-NH2 [AE154]", "values": [
      {"measurement": "Times Baseline Response, E^d", "setting": "[7]", "value": 15.1}
    ]},
    {"substance": "Ac-L r MKLPK-NH2 [AE161]", "values": [
      {"measurement": "Times Baseline Response, E^d", "setting": "[8]", "value": 4.0}
    ]},
    {"substance": "Ac-LDSLRMKLPKSAK-NH2 [AE153]", "values": [
      {"measurement": "Times Baseline Response, E^d", "setting": "[7]", "value": 8.5}
    ]},
    {"substance": "Ac-LQLDSLRMKLPKSAK-NH2 [AE151]", "values": [
      {"measurement": "Times Baseline Response, E^d", "setting": "[7]", "value": 2.5}
    ]},
    {"substance": "Ac-LR (mL) KLPK-NH2 [AE302]", "values": [
      {"measurement": "Times Baseline Response, E^d", "setting": "[5]", "value": 4.5}
    ]},
    {"substance": "Ac-LR (mL) KYPK-NH2 [AE303]", "values": [
      {"measurement": "Times Baseline Response, E^d", "setting": "[5]", "value": 4.0}
    ]},
    {"substance": "Ac-LR (mL) KYPk-NH2 [AE305]", "values": [
      {"measurement": "Times Baseline Response, E^d", "setting": "[5]", "value": 5.2}
    ]},
    {"substance": "Ac-LR (mL) KyPK-NH2 [AE304]", "values": [
      {"measurement": "Times Baseline Response, E^d", "setting": "[5]", "value": 3.9}
    ]},
    {"substance": "Ac-LR (mL) KyPk-NH2 [AE306]", "values": [
      {"measurement": "Times Baseline Response, E^d", "setting": "[5]", "value": 3.2}
    ]},
    {"substance": "Ac-LR HArg KLPK-NH2 [AE197]", "values": [
      {"measurement": "Times Baseline Response, E^d", "setting": "[9]", "value": 10.7},
      {"measurement": "Times Baseline Response, E^d", "setting": "[10]", "value": 16.3}
    ]},
    {"substance": "Ac-LR L KLPK-NH2 (Ac-LRLKLPK-NH2; not fully specified; printed as Ac-LR L KLPK-NH2) [AE206]", "values": [
      {"measurement": "Times Baseline Response, E^d", "setting": "[9]", "value": 11.9},
      {"measurement": "Times Baseline Response, E^d", "setting": "[5]", "value": 12.7},
      {"measurement": "Times Baseline Response, E^d", "setting": "[6]", "value": 25.5},
      {"measurement": "Times Baseline Response, E^d", "setting": "[10]", "value": 15.5}
    ]},
    {"substance": "Ac-LR N KLPK-NH2 (Ac-LRNKLPK-NH2) [AE202]", "values": [
      {"measurement": "Times Baseline Response, E^d", "setting": "[9]", "value": 18.2},
      {"measurement": "Times Baseline Response, E^d", "setting": "[6]", "value": 34.4}
    ]},
    {"substance": "Ac-LR m KLPK-NH2 [AE162]", "values": [
      {"measurement": "Times Baseline Response, E^d", "setting": "[8]", "value": 2.2}
    ]},
    {"substance": "Ac-LRLK HArg PK-NH2 [AE341]", "values": [
      {"measurement": "Times Baseline Response, E^d", "setting": "[6]", "value": 38.9}
    ]},
    {"substance": "Ac-LRLKWPK-NH2 [AE309]", "values": [
      {"measurement": "Times Baseline Response, E^d", "setting": "[5]", "value": 12.1},
      {"measurement": "Times Baseline Response, E^d", "setting": "[6]", "value": 13.1},
      {"measurement": "Times Baseline Response, E^d", "setting": "[10]", "value": 20.0}
    ]},
    {"substance": "Ac-LRLKYPK-NH2 [AE301]", "values": [
      {"measurement": "Times Baseline Response, E^d", "setting": "[5]", "value": 12.5},
      {"measurement": "Times Baseline Response, E^d", "setting": "[6]", "value": 30.7},
      {"measurement": "Times Baseline Response, E^d", "setting": "[10]", "value": 20.1}
    ]},
    {"substance": "Ac-LRLKYPk-NH2 [AE307]", "values": [
      {"measurement": "Times Baseline Response, E^d", "setting": "[5]", "value": 13.2}
    ]},
    {"substance": "Ac-LRLKyPK-NH2 [AE308]", "values": [
      {"measurement": "Times Baseline Response, E^d", "setting": "[5]", "value": 12.6}
    ]},
    {"substance": "Ac-LRM M LPK-NH2 (Ac-LRMMLPK-NH2) [AE220]", "values": [
      {"measurement": "Times Baseline Response, E^d", "setting": "Table 6, AE peptide 64 μM, supernatant 1:4", "value": 2.8},
      {"measurement": "Times Baseline Response, E^d", "setting": "[10]", "value": 12.0}
    ]},
    {"substance": "Ac-LRM k LPK-NH2 [AE163]", "values": [
      {"measurement": "Times Baseline Response, E^d", "setting": "[8]", "value": 2.4}
    ]},
    {"substance": "Ac-LRMK (mL) PK-NH2 [AE175]", "values": [
      {"measurement": "Times Baseline Response, E^d", "setting": "[1]", "value": 1},
      {"measurement": "Times Baseline Response, E^d", "setting": "[2]", "value": 6},
      {"measurement": "Times Baseline Response, E^d", "setting": "[3]", "value": 36},
      {"measurement": "Times Baseline Response, E^d", "setting": "[4]", "value": 61},
      {"measurement": "Times Baseline Response, E^d", "setting": "[5]", "value": 15.9}
    ]},
    {"substance": "Ac-LRMK Cit PK-NH2 (Ac-LRMK[Cit]PK-NH2; SMILES CSCC[C@H](NC(=O)[C@H](CCCNC(=N)N)NC(=O)[C@H](CC(C)C)NC(C)=O)C(=O)N[C@@H](CCCCN)C(=O)N[C@@H](CCCNC(N)=O)C(=O)N1CCC[C@H]1C(=O)N[C@@H](CCCCN)C(N)=O) [AE226]", "values": [
      {"measurement": "Times Baseline Response, E^d", "setting": "[11]", "value": 9.0}
    ]},
    {"substance": "Ac-LRMK D PK-NH2 (Ac-LRMKDPK-NH2) [AE230]", "values": [
      {"measurement": "Times Baseline Response, E^d", "setting": "[11]", "value": 0.6}
    ]},
    {"substance": "Ac-LRMK E PK-NH2 (Ac-LRMKEPK-NH2) [AE231]", "values": [
      {"measurement": "Times Baseline Response, E^d", "setting": "[11]", "value": 1.8}
    ]},
    {"substance": "Ac-LRMK F PK-NH2 (Ac-LRMKFPK-NH2) [AE234]", "values": [
      {"measurement": "Times Baseline Response, E^d", "setting": "[11]", "value": 14.2}
    ]},
    {"substance": "Ac-LRMK H PK-NH2 (Ac-LRMKHPK-NH2) [AE228]", "values": [
      {"measurement": "Times Baseline Response, E^d", "setting": "[11]", "value": 8.5}
    ]}
  ]
}
